The target in one assay is T1, Gid9 (S. cerevisiae, UniProt P40492 1-516).
T1 sequence: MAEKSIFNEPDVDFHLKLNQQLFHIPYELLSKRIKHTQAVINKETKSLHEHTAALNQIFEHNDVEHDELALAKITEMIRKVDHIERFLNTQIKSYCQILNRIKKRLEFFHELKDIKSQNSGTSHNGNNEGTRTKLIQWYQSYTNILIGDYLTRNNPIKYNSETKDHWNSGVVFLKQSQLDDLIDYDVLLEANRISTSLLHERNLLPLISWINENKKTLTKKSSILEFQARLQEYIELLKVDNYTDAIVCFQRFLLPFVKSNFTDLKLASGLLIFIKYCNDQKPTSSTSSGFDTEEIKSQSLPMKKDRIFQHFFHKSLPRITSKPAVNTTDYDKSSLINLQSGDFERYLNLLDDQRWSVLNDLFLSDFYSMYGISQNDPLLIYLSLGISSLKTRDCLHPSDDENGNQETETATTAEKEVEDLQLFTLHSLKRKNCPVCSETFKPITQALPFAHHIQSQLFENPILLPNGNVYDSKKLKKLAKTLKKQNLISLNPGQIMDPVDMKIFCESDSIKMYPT
The assay is described as follows: […].

The target in assay [1] is T2, Gid9 (endogenous, in native GID^Ant) (S. cerevisiae (endogenous in strain …, UniProt P40492 1-516)).
T2 sequence: T1 sequence
The assay is described as follows: cryo-EM structure.

Assay [2] concerns the target T3, Gid1 (endogenous, in native GID^Ant) (S. cerevisiae (endogenous in strain …, UniProt P53076 1-958)).
T3 sequence: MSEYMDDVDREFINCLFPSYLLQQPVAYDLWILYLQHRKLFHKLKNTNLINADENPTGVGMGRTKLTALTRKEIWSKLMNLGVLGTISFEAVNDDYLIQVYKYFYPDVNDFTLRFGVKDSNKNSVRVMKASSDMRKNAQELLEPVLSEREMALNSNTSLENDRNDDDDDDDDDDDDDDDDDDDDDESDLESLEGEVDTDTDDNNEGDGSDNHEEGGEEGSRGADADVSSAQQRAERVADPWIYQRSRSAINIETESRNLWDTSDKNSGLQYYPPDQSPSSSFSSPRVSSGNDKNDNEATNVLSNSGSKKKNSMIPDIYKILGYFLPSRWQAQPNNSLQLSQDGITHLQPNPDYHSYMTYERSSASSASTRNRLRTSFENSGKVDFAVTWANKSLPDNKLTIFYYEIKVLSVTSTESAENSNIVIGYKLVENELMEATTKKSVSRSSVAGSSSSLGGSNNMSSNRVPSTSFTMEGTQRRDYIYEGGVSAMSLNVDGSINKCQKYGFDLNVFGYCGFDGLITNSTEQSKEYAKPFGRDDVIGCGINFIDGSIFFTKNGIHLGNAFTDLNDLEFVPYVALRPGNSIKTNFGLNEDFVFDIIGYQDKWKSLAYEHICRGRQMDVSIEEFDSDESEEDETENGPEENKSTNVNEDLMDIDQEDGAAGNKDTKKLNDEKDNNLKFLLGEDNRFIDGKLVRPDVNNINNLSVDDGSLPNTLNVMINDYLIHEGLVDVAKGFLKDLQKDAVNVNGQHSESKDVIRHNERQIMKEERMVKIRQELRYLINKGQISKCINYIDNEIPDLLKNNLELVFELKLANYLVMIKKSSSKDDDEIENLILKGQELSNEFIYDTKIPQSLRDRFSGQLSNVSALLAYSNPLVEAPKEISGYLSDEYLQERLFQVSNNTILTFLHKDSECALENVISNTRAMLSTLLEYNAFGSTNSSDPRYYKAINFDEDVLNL
The assay is described as follows: cryo-EM structure.

A further assay has as its target T4, Gid1 (S. cerevisiae, UniProt P53076 1-958).
T4 sequence: T3 sequence
The assay is described as follows: […].

B1: Gid2 (natural protein)
chain: MSELLDSFETEFAKFYTDSNLEETNLQKCLDHTHEFKSQLKKLKAHLNKHIQESKPEVYNKLSDKEKQKFKRKRELIIEKLSKSQRQWDHSVKKQIKYVSQQSNRFNKSTLNKLKEFDIDSVYVNKLPKETMENVNEAIGYHILRYSIDNMPLGNKNEAFQYLKDVYGITNKESTEFIEMGQIVHDLKKGDTESCLKWCSNEMESLSSNHTALSSLKFDLYTLSAMQIVKHGNPVELYYQITQNAPLDCFRHREKELMQNVVPLLTKSLIGQPIEDIDSKVNKELKECTSLFIKEYCAAKHIFFDSPLFLIVLSGLISFQFFIKYKTIRELAHVDWTTKDELPFDVKLPDFLTHFHPIFICPVLKEETTTENPPYSLACHHIISKKALDRLSKNGTITFKCPYCPVNTSMSSTKKVRFVML
Regarding B1, the binding result with Gid9 is given as “binds”.

B2: Gid8 with 3X Flag tag at the C-terminus (endogenous, strain CRLY45) (natural protein)
chain: MTISTLSNETTKSGSCSGQGKNGGKDFTYGKKCFTKEEWKEQVAKYSAMGELYANKTIHYPLKIQPNSSGGSQDEGFATIQTTPIEPTLPRLLLNYFVSMAYEDSSIRMAKELGFIRNNKDIAVFNDLYKIKERFHIKHLIKLGRINEAMEEINSIFGLEVLEETFNATGSYTGRTDRQQQQQQQQFDIDGDLHFKLLLLNLIEMIRSHHQQENITKDSNDFILNLIQYSQNKLAIKASSSVKKMQELELAMTLLLFPLSDSADSGSIKLPKSLQNLYSISLRSKIADLVNEKLLKFIHPRIQFEISNNNSKFPDLLNSDKKIITQNFTVYNNNLVNGSNGTKITHISSDQPINEKMSSNEVTAAANSVWLNQRDGNVGTGSAATTFHNLENKNYWNQTSELLSSSNGKEKGLEFNNYYSSEFPYEPRLTQIMKLWCWCENQLHHNQIGVPRVEN
In the case of B2, the binding result in assay [1] and in assay [2] was “binds” each time.

B3: Gid8 (natural protein)
chain: B2 chain
In the case of B3, the binding result with Gid9 and with Gid1 was “binds” in each case.

These data come from article doi:10.1101/824060 (bioRxiv, 2019).
